Reference: publication PMC6821195, “The internal interaction in RBBP5 regulates assembly and activity of MLL1 methyltransferase complex” (Nucleic Acids Research, 2019)
Where two headings read alike, the source gives them in different places. Each block holds one molecule with its values, some of them ahead of it.

B2: RBBP5 WD40 propeller (residues 2–333) (domain or fragment)
chain: NLELLESFGQNYPEEADGTLDCISMALTCTFNRWGTLLAVGCNDGRIVIWDFLTRGIAKIISAHIHPVCSLCWSRDGHKLVSASTDNIVSQWDVLSGDCDQRFRFPSPILKVQYHPRDQNKVLVCPMKSAPVMLTLSDSKHVVLPVDDDSDLNVVASFDRRGEYIYTGNAKGKILVLKTDSQDLVASFRVTTGTSNTTAIKSIEFARKGSCFLINTADRIIRVYDGREILTCGRDGEPEPMQKLQDLVNRTPWKKCCFSGDGEYIVAGSARQHALYIWEKSIGNLVKILHGTRGELLLDVAWHPVRPIIASISSGVVSIWAQNQVENWSAFA

Assays:
[1] = system: RBBP5 2-325 (Homo sapiens); test: fluorescence polarization; conditions: FP: 20 mM HEPES pH 7.4, 150 mM NaCl, 0.1% BSA, 0.1 uM DNA, 25 C, 30 min; EMSA: 20 mM Tris-HCl pH 8.0, 150 mM NaCl, 10% glycerol, 0.1 uM nucleosome, on ice 1 h …
[2] = system: RBBP5 CTD3 (Homo sapiens); test: fluorescence polarization; conditions: FP: 20 mM HEPES pH 7.4, 150 mM NaCl, 0.1% BSA, 0.1 uM DNA, 25 C, 30 min; EMSA: 20 mM Tris-HCl pH 8.0, 150 mM NaCl, 10% glycerol, 0.1 uM nucleosome, on ice 1 h …
[3] = system: RBBP5 full-length (Homo sapiens); test: fluorescence polarization; conditions: FP: 20 mM HEPES pH 7.4, 150 mM NaCl, 0.1% BSA, 0.1 uM DNA, 25 C, 30 min; EMSA: 20 mM Tris-HCl pH 8.0, 150 mM NaCl, 10% glycerol, 0.1 uM nucleosome, on ice 1 h …
[4] = target: B2; test: ITC
[5] = target: T1, RBBP5 WD40 propeller (residues 2–333) (human, UniProt Q15291 2-333); test: ITC; RBBP5 C-terminal constructs, RBBP5_(390–480d) or its mutants (1 mM) injected into 0.1 mM RBBP5_(2–333); 300 mM NaCl, 25 mM Tris–HCl pH 8.0; 20°C; one-site model; conditions: both partners purified
T1 construct: source: Rosetta cells, purified (Ni-NTA, on-beads Ulp1 digestion, SEC)

[6] = target: T2, RBBP5_(390–480d) (C-terminal distal region 390–480 with the 422–443 loop deletion) (human, UniProt Q15291 390-480, 422–443 loop deletion); test: ITC
[7] = target: T2, RBBP5_(390–480d) (C-terminal distal …); test: ITC; remark: listed apart in the source
[8] = target: B2; test: ITC; 300 mM NaCl
[9] = target: B2; test: ITC; 800 mM NaCl
[10] = target: T1, RBBP5 WD40 propeller (residues 2–333); test: ITC; RBBP5_(381–538) (1 mM) titrated into 0.1 mM RBBP5_(2–333); 150 mM NaCl, 25 mM Tris–HCl pH 8.0 (300 and 800 mM NaCl also tested); 20°C; one-site model; conditions: both partners purified
[11] = target: T3, RBBP5 WD40 propeller with residues 10–325 (RBBP5_(10–325)) (human, UniProt Q15291 10-325, selenomethionine (Se-Met derivative protein)); test: crystal structure; RBBP5_(10–325) and RBBP5_(390–480d) mixed at 1:2 and purified by SEC; crystals in 0.1 M HEPES-Na pH 7.5, 2% PEG 400, 2.0 M ammonium sulfate, 16°C; Se-Met SAD, 1.8 Å; conditions: both partners purified
T3 construct: RBBP5, human, residues 10-325 (WD40 propeller); native and Se-Met complexes were both crystallised; the solved dataset is of the Se-Met crystal; also called SeMet RBBP5_(10–325); source: Rosetta cells (Se-Met derivative grown in M9 minimal media), purified (Ni-NTA, on-beads Ulp1 digestion, SEC)

[12] = target: T4, RBBP5 WD40 propeller (residues 2–333), Q15291; test: ITC; conditions: chain shown with the change; 25mM Tris–HCl, 300 mM NaCl, pH 8.0
T4 chain: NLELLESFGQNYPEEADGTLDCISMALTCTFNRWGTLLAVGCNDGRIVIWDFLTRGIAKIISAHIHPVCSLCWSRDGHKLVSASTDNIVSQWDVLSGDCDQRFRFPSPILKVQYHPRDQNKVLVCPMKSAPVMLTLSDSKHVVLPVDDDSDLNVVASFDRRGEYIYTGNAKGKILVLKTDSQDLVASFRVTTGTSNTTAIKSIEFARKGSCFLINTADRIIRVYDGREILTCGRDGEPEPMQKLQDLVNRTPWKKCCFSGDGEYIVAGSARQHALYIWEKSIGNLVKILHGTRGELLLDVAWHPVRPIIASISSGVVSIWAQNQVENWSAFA

[13] = target: B2; test: ITC

Molecule: FAM-labelled 167-bp dsDNA
Kd [1]: 35.1 µM
Kd [2]: 13.3 µM
Kd [3]: 11.5 µM

Molecule: B2
Kd [6]: 4.3 µM
Kd [7]: 5.2 µM

B3: RBBP5 390-474 (protein)
chain: DEELEDSKALLYLPIAPEVEDPEENPYGPPPDAVQTSLMDEGASSEKKRQSSADGSQPPKKKPKTTNIELQGVPNDEVHPLLGVK
Kd [4]: 11.7 µM

B5: RBBP5 404-538 (protein)
chain: IAPEVEDPEENPYGPPPDAVQTSLMDEGASSEKKRQSSADGSQPPKKKPKTTNIELQGVPNDEVHPLLGVKGDGKSKKKQAGRPKGSKGKEKDSPFKPKLYKGDRGLPLEGSAKGKVQAELSQPLTAGGAISELL
Kd [4]: 59.8 µM

B6: RBBP5_(390–480d) (C-terminal distal region 390–480 with the 422–443 loop deletion) (domain or fragment, human, UniProt Q15291 390-480, looked up)
chain: DEELEDSKALLYLPIAPEVEDPEENPYGPPPDGSQPPKKKPKTTNIELQGVPNDEVHPLLGVKGDGKSK
notes: RBBP5, human, residues 390-480 with the loop 422-443 deleted; also called RBBP5_(CTDM); C-Terminal Distal Minimized; source: Rosetta cells, purified (Ni-NTA, on-beads Ulp1 digestion, SEC)
binding result [5]: binds
binding result [11]: binds

B14: RBBP5 390-467 (protein)
chain: DEELEDSKALLYLPIAPEVEDPEENPYGPPPDAVQTSLMDEGASSEKKRQSSADGSQPPKKKPKTTNIELQGVPNDEV
Kd [4]: 17.3 µM

B16: RBBP5 381-480 (protein)
chain: DPIAAFCSSDEELEDSKALLYLPIAPEVEDPEENPYGPPPDAVQTSLMDEGASSEKKRQSSADGSQPPKKKPKTTNIELQGVPNDEVHPLLGVKGDGKSK
Kd [4]: 9.6 µM

Further lines, results first:

Kd [4]: 20.3 µM
binding result [5]: binds
B1: RBBP5_(393–480) construct (domain or fragment, human, UniProt Q15291 393-480, looked up)
chain: LEDSKALLYLPIAPEVEDPEENPYGPPPDAVQTSLMDEGASSEKKRQSSADGSQPPKKKPKTTNIELQGVPNDEVHPLLGVKGDGKSK
notes: RBBP5, human, residues 393-480; source: Rosetta cells, purified (Ni-NTA, on-beads Ulp1 digestion, SEC)

Kd [4]: 9.7 µM
Kd [8]: 9.7 µM
Kd [9]: 24.6 µM
Kd [10]: 6.8 µM
B4: RBBP5 C-terminal distal region (residues 381–538) (domain or fragment, human, UniProt Q15291 381-538, looked up)
chain: DPIAAFCSSDEELEDSKALLYLPIAPEVEDPEENPYGPPPDAVQTSLMDEGASSEKKRQSSADGSQPPKKKPKTTNIELQGVPNDEVHPLLGVKGDGKSKKKQAGRPKGSKGKEKDSPFKPKLYKGDRGLPLEGSAKGKVQAELSQPLTAGGAISELL
notes: also called RBBP5CTD; source: Rosetta cells, purified (Ni-NTA, on-beads Ulp1 digestion, SEC)

Kd [12]: 369 µM
B7: RBBP5_(390–480d) (C-terminal distal region 390–480 with the 422–443 loop deletion), Q15291 L399A; L400A; I457A; L459A (protein)
chain: DEELEDSKAAAYLPIAPEVEDPEENPYGPPPDGSQPPKKKPKTTNAEAQGVPNDEVHPLLGVKGDGKSK

Kd [13]: 108 µM
B8: RBBP5390-480d I457/L459A (protein)
chain: DEELEDSKALLYLPIAPEVEDPEENPYGPPPDGSQPPKKKPKTTNAEAQGVPNDEVHPLLGVKGDGKSK

Kd [12]: 19.1 µM
binding result [5]: binds
B9: RBBP5_(CTDM) (RBBP5_(390–480d)) L470A (domain or fragment, human, UniProt Q15291 390-480, looked up)
chain: DEELEDSKALLYLPIAPEVEDPEENPYGPPPDGSQPPKKKPKTTNIELQGVPNDEVHPALGVKGDGKSK
notes: RBBP5, human, residues 390-480 with the loop 422-443 deleted, L470A; source: Rosetta cells, purified (Ni-NTA, on-beads Ulp1 digestion, SEC)

Kd [5]: ~70 µM
fold decrease in affinity against wild-type RBBP5_(CTDM) [5]: ~13 fold
B10: RBBP5_(CTDM) (RBBP5_(390–480d)) L400A (domain or fragment, human, UniProt Q15291 390-480, looked up)
chain: DEELEDSKALAYLPIAPEVEDPEENPYGPPPDGSQPPKKKPKTTNIELQGVPNDEVHPLLGVKGDGKSK
notes: RBBP5, human, residues 390-480 with the loop 422-443 deleted, L400A; source: Rosetta cells, purified (Ni-NTA, on-beads Ulp1 digestion, SEC)

binding result [5]: binds
B11: RBBP5_(CTDM) (RBBP5_(390–480d)) L459A (domain or fragment, human, UniProt Q15291 390-480, looked up)
chain: DEELEDSKALLYLPIAPEVEDPEENPYGPPPDGSQPPKKKPKTTNIEAQGVPNDEVHPLLGVKGDGKSK
notes: RBBP5, human, residues 390-480 with the loop 422-443 deleted, L459A; source: Rosetta cells, purified (Ni-NTA, on-beads Ulp1 digestion, SEC)

binding result [5]: binds
B12: RBBP5_(CTDM) (RBBP5_(390–480d)) I457A (domain or fragment, human, UniProt Q15291 390-480, looked up)
chain: DEELEDSKALLYLPIAPEVEDPEENPYGPPPDGSQPPKKKPKTTNAELQGVPNDEVHPLLGVKGDGKSK
notes: RBBP5, human, residues 390-480 with the loop 422-443 deleted, I457A; source: Rosetta cells, purified (Ni-NTA, on-beads Ulp1 digestion, SEC)

Kd [5]: ~70 µM
fold decrease in affinity against wild-type RBBP5_(CTDM) [5]: ~13 fold
B13: RBBP5_(CTDM) (RBBP5_(390–480d)) L399A (domain or fragment, human, UniProt Q15291 390-480, looked up)
chain: DEELEDSKAALYLPIAPEVEDPEENPYGPPPDGSQPPKKKPKTTNIELQGVPNDEVHPLLGVKGDGKSK
notes: RBBP5, human, residues 390-480 with the loop 422-443 deleted, L399A; source: Rosetta cells, purified (Ni-NTA, on-beads Ulp1 digestion, SEC)

Kd [4]: 7.5 µM
binding result [5]: binds
B15: RBBP5 C-terminal construct (390–480) (domain or fragment, human, UniProt Q15291 390-480, looked up)
chain: DEELEDSKALLYLPIAPEVEDPEENPYGPPPDAVQTSLMDEGASSEKKRQSSADGSQPPKKKPKTTNIELQGVPNDEVHPLLGVKGDGKSK
notes: RBBP5, human, residues 390-480; also called RBBP5_(390–480); source: Rosetta cells, purified (Ni-NTA, on-beads Ulp1 digestion, SEC)
